Results published in PMC4072508, “Genome-Wide Prediction and Validation of Peptides That Bind Human Prosurvival Bcl-2 Proteins” (PLoS Computational Biology, 2014).

T1: Mcl-1, Q07820
T1 chain: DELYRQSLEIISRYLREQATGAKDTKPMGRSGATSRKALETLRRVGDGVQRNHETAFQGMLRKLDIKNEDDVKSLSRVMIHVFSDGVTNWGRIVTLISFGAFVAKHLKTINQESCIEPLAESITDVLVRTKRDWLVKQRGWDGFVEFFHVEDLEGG


Key:
Bcl-xL, Q07817 = assay: peptide SPOT array, c-Myc-tagged receptor at 1 uM or 100 nM, anti-c-Myc-Cy3
Mcl-1, Q07820 = target: T1, Mcl-1, Q07820; assay: as above

Sequence of Bcl-xL, Q07817 (Q07817 1-209): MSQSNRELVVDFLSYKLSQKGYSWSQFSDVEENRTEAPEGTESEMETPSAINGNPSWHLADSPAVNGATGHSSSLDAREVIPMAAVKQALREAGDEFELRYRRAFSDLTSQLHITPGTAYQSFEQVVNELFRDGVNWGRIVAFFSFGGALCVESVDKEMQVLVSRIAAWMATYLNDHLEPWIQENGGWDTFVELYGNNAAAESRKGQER

| SPOT signal as a fraction of Bim BH3's signal on the same receptor and array (Bcl-xL, Q07817) | SPOT signal as a fraction of Bim BH3's signal on the same receptor and array (Mcl-1, Q07820) | Binder |
| --- | --- | --- |
| 0.02 | 0.02 | ITVVGDVGGRIAIILDDIIDDVESFV |
| 0.01 | 0.01 | SALETQVAAADQALADDYLAQLSLEP |
| 0.04 | 0.05 | SAGVPVRGVELQAALERFARCFGRTD [TIGD7] |
| 0.01 | 0.01 | IQQDLGCGASDGVISDNLLVTGGQGC |
| 0.01 | 0.01 | LGLGELAGLTDANEADSLTYDIANNK [STRN] |
| 0.02 | 0.02 | SHALICISHWDLGIGDRHLNNFMVAM [PRKDC] |
| 0.01 | 0.01 | GKPETCTGQDDADLGDRLRDWFQLLH [SPOCK2] |
| 0.02 | 0.02 | SALETQVAAAVQALLDDYLAQLSLEP |
| 0.12 | 0.07 | AKFLLYLGHSLSTWLDRMWHFAVSVF [SLC40A1] |
| 0.02 | 0.02 | ITVVGDVGGRIAIIVDDIIDDVESFV |
| 0.02 | 0.02 | AALFLHAGCQDLTAGEDGKVQVWSGS [TEP1] |
| 0.01 | 0.02 | VFDDLRGSVSLSWVLDSTGVILVLTT [SORT1] |
| 0.02 | 0.02 | QLSKPGAALYLQSIGEGFKEAVQYVL [SOS1] |
| 0.01 | 0.01 | IQQDLGCGASLGVILDNLLVTGGQGC |

The next lines start with the binder.

| Binder | SPOT signal as a fraction of Bim BH3's signal on the same receptor and array (Bcl-xL, Q07817) | SPOT signal as a fraction of Bim BH3's signal on the same receptor and array (Mcl-1, Q07820) |
| --- | --- | --- |
| ALKKADVGFAMGIALTDVAKEASDII [ATP2B1] | 0.02 | 0.01 |
| GLFSATSGVDLKYVLDTFGQEVRPVS [DDX7] | 0.02 | 0.02 |
| RIEMWISILEDNELGEYAAVELHQAK [KIF13A] | 0.03 | 0.02 |
| SVRYYPSGDAFASGLDDATCRLYDLR [GNB5] | 0.02 | 0.02 |
| RHFVIRRGQVDREIAEEYGGVMVSFP [HDLBP] | 0.02 | 0.03 |
| FRFAQLCGLHIVIHADELEELMCYYQ [CLTCL1] | 0.02 | 0.02 |
| VILADPDGHEICFVLDEAFRELSKMD [GLOD4] | 0.02 | 0.02 |
| KNIAGALAFWMANALELLNFIKQDRD [MLLT4] | 0.03 | 0.02 |
| AFTEREASEIDKSIGEAIQYLHSINI [MAPKAPK2] | 0.02 | 0.02 |
| DLLGMVVVDEDHMLGDSHRGYLLELL [POLQ] | 0.02 | 0.02 |
| PSLSKELTSSLAGVLDVSFDSDSQFP [CRTC1] | 0.02 | 0.01 |
| QRLINLVGESLRLLLNTFVALSDLRC [BAT3] | 0.08 | 0.03 |
| IVGGCVVGIAMARFADFIRGMLKLIL | 0.25 | 0.18 |
| VEQFSEASQQDAELSEVLVLRLENYE | 0.02 | 0.02 |
| SQGDKRVAFFMRKGLDCLSKWVGESE [ATAD2] | 0.06 | 0.03 |
| IVGGCVVGIADARFADFIRGMLKLIL | 0.15 | 0.14 |
| PPDAHVLGKALEAALQDFSLDLRSTG [CIITA] | 0.01 | 0.02 |
| AVLCVECGYKYRFFGEDAEIAARELN [MSH3] | 0.01 | 0.01 |
| ISDVQVFGYSDRFNADLLRSAVQQVN [DBC1] | 0.02 | 0.02 |
| LRCEMASTGEVACFLEGIHTAFLKAM [CPS1] | 0.02 | 0.03 |
| VEQFSEASQQMAELSEVLVLRLENYE | 0.02 | 0.02 |
| RLAHEHHCLRIKILGDCYYCVSGLPE [ADCY8] | 0.03 | 0.02 |
| GLTWDPVGKYIASQLDDRSLKVWRTL [HIRA] | 0.86 | 0.55 |
| DEHISYVATKVCHLLDQLEGVNTPRQ [EXOC5] | 0.02 | 0.02 |
| VEQFSEASQQMAELLEVLVLRLENYE | 0.02 | 0.02 |
| CGDLASLSIDDWTLGEEVDGRRLVVA [BIRC6] | 0.02 | 0.02 |
| SKFVILSAHKLVFILDTLTRQVTAQD [NEDD9] | 0.06 | 0.04 |
